Source: the RNAGym collection of RNA variant scans (doi:10.1021/acssynbio.7b00057)

B1: Pistol ribozyme (parent)
chain: GGGUCGUUGUUCCAUAAUCGCGUGGAUAUGGCACGCAAGUUUCUACCGGGCACCGUAAAUGUCCGACUGGAGCCGUUCGGGCGGCUAUAAACAGACCUCAGGCCCGAAGCGUGGCGGCACCUGCCGCCGGUGGUAAAAAAGAUCGGAAGAGCACACGUCU

Variants of: B1
Assay: aptazyme ON/OFF ratio, guanine; higher = stronger switching; co-transcriptional cleavage with and without guanine

Going from U7C U8A U10G U11A C12U C13G to U7C U8A U10G U11A C12U C13A, the “aptazyme ON/OFF ratio” value rises from 1.24 to 1.3.

Compared with U7C U8A U10G U11A C12U C13U, U7C U8A U10C C12A is higher in “aptazyme ON/OFF ratio” value: 1.33 for the first, 1.41 for the second.

First: U7C U8A U10C C12U
Second: U7C U8A U10C C12G
The “aptazyme ON/OFF ratio” value of the first is higher: 3.73 for the first, 1.63 for the second.

Going from U7C U8A U10G U11A C12A C13A to U7C U8A U10G U11A C12A C13G, the “aptazyme ON/OFF ratio” value falls from 1.14 to 1.08.

Going from U7C U8A U10G U11A C12A C13U to U7C U8A U10A U11C C13U, the “aptazyme ON/OFF ratio” value falls from 1.24 to 1.01.

Going from U7C U8A U10A U11C C13A to U7C U8A U10A U11C C13G, the “aptazyme ON/OFF ratio” value rises from 1.03 to 1.04.

Going from U7C U8A G9U U11C C12G to U7C U8A G9U U11C C12A, the “aptazyme ON/OFF ratio” value falls from 1.14 to 1.13.

First: U7C U8A G9U U11C C12U
Second: U7C U8A G9U U10G U11C C12A C13A
The “aptazyme ON/OFF ratio” value of the first is lower: 1.17 for the first, 1.18 for the second.

Going from U7C U8A G9U U10G U11C C12A C13G to U7C U8A G9U U10G U11C C12A C13U, the “aptazyme ON/OFF ratio” value rises from 1.16 to 1.27.

First: U7C U8A G9U U10C U11G C12U
Second: U7C U8A G9U U10C U11G C12G
The “aptazyme ON/OFF ratio” value of the first is higher: 1.21 for the first, 1.11 for the second.

First: U7C U8A G9U U10C U11G C12A
Second: U7C U8A U10A C13U
The “aptazyme ON/OFF ratio” value of the first is higher: 1.07 for the first, 1.06 for the second.

Compared with U7C U8A U10A C13G, U7C U8A U10A C13A is lower in “aptazyme ON/OFF ratio” value: 1.08 for the first, 1.07 for the second.

First: U7C U8A G9U U10C U11C C13A
Second: U7C U8A G9U U10C U11C C13U
The “aptazyme ON/OFF ratio” value of the first is higher: 1.02 for the first, 1.01 for the second.

U7C U8A G9U U10C U11C C13G and U7C U8A G9U U11C C13G are the same in “aptazyme ON/OFF ratio” value: 1.03 for the first, 1.03 for the second.

First: U7C U8A G9U U11C C13U
Second: U7C U8A G9U U11C C13A
The “aptazyme ON/OFF ratio” value of the first is lower: 1.03 for the first, 1.04 for the second.

Compared with U7C U8A U10A U11G C12A C13G, U7C U8A U10A U11G C12A C13A is lower in “aptazyme ON/OFF ratio” value: 1.17 for the first, 1.12 for the second.

Compared with U7C U8A U10A U11G C12A C13U, U7C U8A G9U U11G C12U C13U is higher in “aptazyme ON/OFF ratio” value: 1.19 for the first, 1.24 for the second.

Compared with U7C U8A G9U U11G C12U C13G, U7C U8A G9U U11G C12U C13A is higher in “aptazyme ON/OFF ratio” value: 1.17 for the first, 1.22 for the second.

Going from U7C U8A U10G U11A to U7C U8A U10G U11C, the “aptazyme ON/OFF ratio” value rises from 1.06 to 1.07.

U7C U8A G9U U10C C12A C13G and U7C U8A G9U U10C C12A C13U are the same in “aptazyme ON/OFF ratio” value: 1.15 for the first, 1.15 for the second.

Going from U7C U8A G9U U10C U11G C13U to U7C U8A G9U U10C U11G C13A, the “aptazyme ON/OFF ratio” value falls from 1.19 to 1.18.

First: U7C U8A G9U U10C U11G C13G
Second: U7C U8A U10A U11A C13U
The “aptazyme ON/OFF ratio” value of the first is lower: 1.04 for the first, 1.17 for the second.

First: U7C U8A U10A U11A C13A
Second: U7C U8A U10A U11A C13G
The “aptazyme ON/OFF ratio” value of the first is lower: 1.17 for the first, 1.19 for the second.

Compared with U7C U8A G9U U10G U11G C12A C13G, U7C U8A G9U U10G U11G C12A C13A is lower in “aptazyme ON/OFF ratio” value: 1.11 for the first, 1.07 for the second.

Compared with U7C U8A G9U U10G U11G C12A C13U, U7C U8A G9U U10G C12U C13A is lower in “aptazyme ON/OFF ratio” value: 1.26 for the first, 1.1 for the second.

Going from U7C U8A G9U U10G C12U C13U to U7C U8A G9U U10G C12U C13G, the “aptazyme ON/OFF ratio” value falls from 1.27 to 1.25.

U7C U8A G9U U10C U11A C12U and U7C U8A G9U U10C U11A C12G are the same in “aptazyme ON/OFF ratio” value: 1.12 for the first, 1.12 for the second.

Going from U7C U8A G9U U10C U11A C12A to U7C U8A U10G U11A C12G, the “aptazyme ON/OFF ratio” value rises from 1.13 to 1.33.

First: U7C U8A U10G U11A C12A
Second: U7C U8A U10G U11A C12U
The “aptazyme ON/OFF ratio” value of the first is higher: 1.22 for the first, 1.16 for the second.

Going from U7C U8A G9U U10C C13G to U7C U8A G9U U10C C13A, the “aptazyme ON/OFF ratio” value falls from 1.07 to 1.05.

Compared with U7C U8A G9U U10C C13U, U7C U8A G9U U10G U11G C13A is lower in “aptazyme ON/OFF ratio” value: 1.8 for the first, 1.13 for the second.

First: U7C U8A G9U U10G U11G C13U
Second: U7C U8A G9U U10G U11G C13G
The “aptazyme ON/OFF ratio” value of the first is higher: 1.06 for the first, 1.04 for the second.

Going from U7C U8A G9U U10C U11A C13G to U7C U8A G9U U10C U11A C13A, the “aptazyme ON/OFF ratio” value rises from 1.07 to 1.15.

Compared with U7C U8A G9U U10C U11A C13U, U7C U8A G9U U10G U11A C12U C13U is lower in “aptazyme ON/OFF ratio” value: 1.17 for the first, 1.1 for the second.

Compared with U7C U8A G9U U10G U11A C12U C13G, U7C U8A G9U U10G U11A C12U C13A is higher in “aptazyme ON/OFF ratio” value: 1.11 for the first, 1.12 for the second.

Going from U7C U8A U10A C12U to U7C U8A U10A C12G, the “aptazyme ON/OFF ratio” value rises from 1.13 to 1.19.

Going from U7C U8A U10A C12A to U7C U8A U10G C12A C13A, the “aptazyme ON/OFF ratio” value falls from 1.3 to 1.2.

Going from U7C U8A U10G C12A C13G to U7C U8A U10G C12A C13U, the “aptazyme ON/OFF ratio” value rises from 1.07 to 1.27.

Compared with U7C U8A U10C U11G C12A, U7C U8A U10C U11G C12G is higher in “aptazyme ON/OFF ratio” value: 1.1 for the first, 1.37 for the second.

Compared with U7C U8A U10C U11G C12U, U7C U8A U10A U11G C12G C13U is higher in “aptazyme ON/OFF ratio” value: 1.17 for the first, 1.24 for the second.

First: U7C U8A U10A U11G C12G C13G
Second: U7C U8A U10A U11G C12G C13A
The “aptazyme ON/OFF ratio” value of the first is higher: 1.13 for the first, 1.03 for the second.

With U7C U8A U10A U11A C12U the “aptazyme ON/OFF ratio” value was 1.26.
